Measurements from patent US20250269048A1 (BIVICTRIX, published 2025).
Positions count from the first letter of the chain named. Read-outs that look alike come from different tables or passages of the source. One block for each binder: values may come before it.

Experiments:
[1] = target: T1, human CD33 (human, UniProt P20138 18-259, limits assumed); experiment: SPR (Kd); value of the CD33 arm 33-PP-4
T1 construct: The construct is not described

[2] = target: T2, human CD7 (human, UniProt P09564 26-180, limits assumed); experiment: SPR (Kd); value of the CD7 arm 7-PP-1 WT
T2 construct: The construct is not described
T2 sequence (looked up): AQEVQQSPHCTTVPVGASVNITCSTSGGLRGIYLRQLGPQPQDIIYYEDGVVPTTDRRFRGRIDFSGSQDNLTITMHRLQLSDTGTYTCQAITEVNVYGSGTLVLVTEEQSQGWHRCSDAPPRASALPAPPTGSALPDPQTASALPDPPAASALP

[3] = target: T2, human CD7; experiment: SPR (Kd); value of the CD7 arm 7-PP-13
[4] = target: T2, human CD7; experiment: SPR (Kd); value of the CD7 arm 7-PP-2
[5] = target: T1, human CD33; experiment: SPR (Kd); value of the CD33 arm 33-PP-1 WT
[6] = target: T2, human CD7; experiment: SPR (Kd); value of the CD7 arm 7-PP-3
[7] = target: T2, human CD7; experiment: SPR (Kd); value of the CD7 arm 7-PP-7
[8] = target: T1, human CD33; experiment: SPR; reference 33-PP-1 WT
[9] = target: T1, human CD33; experiment: SPR
[10] = target: T3, human CD33 on cells (human, UniProt P20138 18-364); experiment: FACS; cells not named
T3 construct: whole, on cells; also called CD33+ cells; MV4.11 (CD7-/CD33+)

[11] = target: T1, human CD33; experiment: SPR (Kd); value of the CD33 arm 33-PP-7
[12] = target: T2, human CD7; experiment: SPR (Kd); value of the CD7 arm 7-PP-8
[13] = target: T2, human CD7; experiment: SPR (Kd); value of the CD7 arm 7-PP-6
[14] = target: T2, human CD7; experiment: SPR; reference 7-AA-WT
[15] = target: T2, human CD7; experiment: SPR
[16] = target: T4, human CD7 on cells (human, UniProt P09564 26-240); experiment: FACS; reference 7-PP-1 WT (itself)
T4 construct: whole, on cells; Target of the FACS and cell capture values and of the kill assays on CD7 single positive cells; also called CD7+ cells; Jurkat (CD33-/CD7+)
T4 sequence (looked up): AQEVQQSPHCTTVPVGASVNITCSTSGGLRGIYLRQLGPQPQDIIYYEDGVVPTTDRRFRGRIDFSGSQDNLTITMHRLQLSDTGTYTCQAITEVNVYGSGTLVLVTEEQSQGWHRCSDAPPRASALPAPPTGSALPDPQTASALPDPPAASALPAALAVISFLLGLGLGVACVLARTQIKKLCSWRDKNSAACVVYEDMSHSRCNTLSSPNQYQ

[17] = target: T4, human CD7 on cells; experiment: FACS; cells not named
[18] = target: T4, human CD7 on cells; experiment: FACS; reference 7-PP-1 WT
[19] = target: T4, human CD7 on cells; experiment: cell capt. exp.; design: unit not given here
[20] = target: T2, human CD7; experiment: SPR; reference 7-PP-1 WT

T1 sequence (P20138 18-259 limits assumed): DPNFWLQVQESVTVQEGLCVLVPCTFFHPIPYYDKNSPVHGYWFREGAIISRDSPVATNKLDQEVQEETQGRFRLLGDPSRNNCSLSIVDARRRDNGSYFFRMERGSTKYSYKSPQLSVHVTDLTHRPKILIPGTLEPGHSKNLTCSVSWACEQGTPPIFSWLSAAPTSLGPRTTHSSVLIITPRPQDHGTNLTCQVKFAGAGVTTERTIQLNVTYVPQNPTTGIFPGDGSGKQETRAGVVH
T3 sequence (P20138 18-364): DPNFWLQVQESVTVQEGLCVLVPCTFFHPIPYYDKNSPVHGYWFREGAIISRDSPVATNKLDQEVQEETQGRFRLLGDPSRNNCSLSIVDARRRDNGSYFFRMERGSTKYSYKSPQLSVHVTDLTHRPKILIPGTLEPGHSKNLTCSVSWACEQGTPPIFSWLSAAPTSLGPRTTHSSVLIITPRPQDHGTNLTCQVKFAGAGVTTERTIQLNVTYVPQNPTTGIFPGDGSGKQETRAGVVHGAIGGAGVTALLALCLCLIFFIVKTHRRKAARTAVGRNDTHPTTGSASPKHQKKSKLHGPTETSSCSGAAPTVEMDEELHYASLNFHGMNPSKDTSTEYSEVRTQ

B1: BVX101 (bispecific antibody)
heavy: QVQLQESGAELVKPGASVKLSCKASGYTFTSYWMHWVKQRPGQGLEWIGKINPSNGRTNYNEKFKSKATLTVDKSSSTAYMQLSSLTSEDSAVYYCARGGVYYDLYYYALDYWGQGTTVTVSSASTKGPSVFPLAPSSKSTSGGTAALGCLVKDYFPEPVTVSWNSGALTSGVHTFPAVLQSSGLYSLSSVVTVPSSSLGTQTYCCNVNHKPSNTKVDKKVEPKSCDKT
light: DIELTQSPATLSVTPGDSVSLSCRASQSISNNLHWYQQKSHESPRLLIKSASQSISGIPSRFSGSGSGTDFTLSINSVETEDFGMYFCQQSNSWPYTFGGGTKLEIKRTVAAPSVFIFPPSDEQLKSGTASVVCLLNNFYPREAKVQWKVDNALQSGNSQESVTEQDSKDSTYSLSSTLTLSKADYEKHKVYACEVTHQGLSSPVTKSFNRGEC
VH: EVQLVQSGAEVKKPGSSVKVSCKASGYTITDSNIHWVRQAPGQSLEWIGYIYPYNGGTDYNQKFKNRATLTVDNPTNTAYMELSSLRSEDTAFYYCVNGNPYLAYWGQGTLVTVSS
VL: DIQLTQSPSTLSASVGDRVTIICRASESLDNYGIRFLTWFQQKPGKAPKLLMYAASNQGSGVPSRFSGSGSGTEFTLTISSLQPDDFATYYCQQTKEVPWSFGQGTKLEIK
notes: bi-Fab; also called CD33-PP-4/CD7-PP-1 WT
- Fold reduction in binding affinity vs 33-PP-1 WT [1]: 38.8 fold
- Fold reduction in binding affinity vs 7-PP-1 WT [2]: 0 fold

B2: BVX161 (bispecific antibody)
heavy: B1 heavy with Y108A
light: B1 light
VH: B1 VH
VL: B1 VL
notes: bi-Fab; also called CD33-PP-4/CD7-PP-13
- Fold reduction in binding affinity vs 33-PP-1 WT [1]: 39 fold
- Fold reduction in binding affinity vs 7-PP-1 WT [3]: 20.3 fold

B3: BVX110 (bispecific antibody)
heavy: B1 heavy with R57G
light: B1 light
VH: B1 VH with Y102W
VL: B1 VL
notes: bi-Fab; also called CD33-PP-1 WT/CD7-PP-2
- Fold reduction in binding affinity vs 7-PP-1 WT [4]: 21.3 fold
- Fold reduction in binding affinity vs 33-PP-1 WT [5]: 0 fold

B4: BVX120 (bispecific antibody)
heavy: B1 heavy with R57K
light: B1 light
VH: B1 VH with Y102W
VL: B1 VL
notes: bi-Fab; also called CD33-PP-1 WT/CD7-PP-3
- Fold reduction in binding affinity vs 7-PP-1 WT [6]: 9.1 fold
- Fold reduction in binding affinity vs 33-PP-1 WT [5]: 0 fold

B5: BVX140 (bispecific antibody)
heavy: B1 heavy with R57G, Y108A
light: B1 light
VH: B1 VH with Y102W
VL: B1 VL
notes: bi-Fab; also called CD33-PP-1 WT/CD7-PP-7
- Fold reduction in binding affinity vs 7-PP-1 WT [7]: 152 fold
- Fold reduction in binding affinity vs 33-PP-1 WT [5]: 0 fold

B6: CD33-PP-7 binding arm (Fab, V domains shown)
VH: B1 VH with Y105A
VL: B1 VL
- Fold Reduction in binding affinity compared to 33-PP-1 WT (Kd, nM) [8]: 67.9 fold
- Kd [9]: 92.3 nM
- FACS binding [10]: 464 nM

B10: CD7-PP-1-WT CD7 binding arm (Fab, V domains shown)
VH: QVQLQESGAELVKPGASVKLSCKASGYTFTSYWMHWVKQRPGQGLEWIGKINPSNGRTNYNEKFKSKATLTVDKSSSTAYMQLSSLTSEDSAVYYCARGGVYYDLYYYALDYWGQGTTVTVSS
VL: DIELTQSPATLSVTPGDSVSLSCRASQSISNNLHWYQQKSHESPRLLIKSASQSISGIPSRFSGSGSGTDFTLSINSVETEDFGMYFCQQSNSWPYTFGGGTKLEIKR
notes: also called PP WT
- Fold Reduction in binding affinity compared to WT (Kd) [14]: 1.36 fold
- Kd [15]: 3.56 nM
- FACS fold reduction compared to PP WT [16]: 1 fold
- FACS binding [17]: 0.53

More lines, now with the values ahead:

- Fold Reduction in binding affinity compared to 33-PP-1 WT (Kd, nM) [8]: 38.8 fold
- Kd [9]: 52.7 nM
- FACS binding [10]: 321 nM
B7: CD33-PP-4 binding arm (Fab, V domains shown)
VH: B1 VH
VL: B1 VL

- Fold reduction in binding affinity vs 33-PP-1 WT [11]: 68 fold
- Fold reduction in binding affinity vs 7-PP-1 WT [12]: 87 fold
B8: BVX152 (bispecific antibody)
heavy: B1 heavy with R57K, Y108A
light: B1 light
VH: B1 VH with Y105A
VL: B1 VL
notes: bi-Fab; also called CD33-PP-7/CD7-PP-8

- Fold reduction in binding affinity vs 7-PP-1 WT [13]: 12.7 fold
- Fold reduction in binding affinity vs 33-PP-1 WT [5]: 0 fold
B9: BVX130 (bispecific antibody)
heavy: B1 heavy with D104A
light: B1 light
VH: B1 VH with Y102W
VL: B1 VL
notes: bi-Fab; also called CD33-PP-1 WT/CD7-PP-6

- Fold Reduction in binding affinity compared to WT (Kd) [14]: 17 fold
- Fold Reduction in binding affinity compared to WT (Kd) ([14]; record 2): 27.5 fold
- Kd [15]: 44.5 nM
- Kd ([15]; record 2): 72.2 nM
- FACS fold reduction compared to PP WT [18]: 53.2 fold
- FACS binding [17]: 28.4
- Affinity from cell capt. exp. [19]: 46
- Fold Reduction in binding affinity compared to PP WT (Kd) [20]: 20.3 fold
B11: CD7-PP-13 CD7 binding arm (Fab, V domains shown)
VH: B10 VH with Y108A
VL: B10 VL
notes: Heavy chain CDR3 Tyr108Ala; also called 7-PP-13 (mut_17-AA-1)
